{"source": "paper PMC5021340", "target": "Mig1 (Xanthophyllomyces dendrorhous) (UniProt A0A1C9UL02)", "sequence (A0A1C9UL02 entry or part of it)": "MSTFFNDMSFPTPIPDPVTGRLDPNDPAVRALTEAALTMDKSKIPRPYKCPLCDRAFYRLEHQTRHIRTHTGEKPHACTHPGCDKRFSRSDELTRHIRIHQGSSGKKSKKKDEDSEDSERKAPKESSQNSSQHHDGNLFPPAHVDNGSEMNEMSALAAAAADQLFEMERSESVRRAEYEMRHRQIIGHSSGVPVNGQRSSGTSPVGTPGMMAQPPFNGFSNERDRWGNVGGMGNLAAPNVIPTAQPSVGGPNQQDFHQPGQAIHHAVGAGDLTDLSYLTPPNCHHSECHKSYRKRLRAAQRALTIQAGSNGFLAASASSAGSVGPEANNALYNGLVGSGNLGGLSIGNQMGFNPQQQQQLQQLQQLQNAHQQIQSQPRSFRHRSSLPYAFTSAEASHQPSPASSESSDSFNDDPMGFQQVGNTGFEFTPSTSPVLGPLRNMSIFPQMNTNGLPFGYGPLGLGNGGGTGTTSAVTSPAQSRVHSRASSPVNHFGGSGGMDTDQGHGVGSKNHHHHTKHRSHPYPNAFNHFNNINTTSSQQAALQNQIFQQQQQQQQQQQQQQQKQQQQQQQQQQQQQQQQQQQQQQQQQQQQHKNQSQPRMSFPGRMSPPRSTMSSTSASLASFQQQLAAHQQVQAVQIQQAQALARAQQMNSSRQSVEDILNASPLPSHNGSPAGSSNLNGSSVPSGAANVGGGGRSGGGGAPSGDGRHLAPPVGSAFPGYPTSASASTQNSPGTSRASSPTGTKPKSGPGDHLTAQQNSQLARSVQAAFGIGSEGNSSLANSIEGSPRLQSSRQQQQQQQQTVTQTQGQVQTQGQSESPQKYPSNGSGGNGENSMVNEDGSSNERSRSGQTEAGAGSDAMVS", "assay": "EMSA", "settings": "20 mM HEPES pH 7.9, 50 mM KCl, 1 mM DTT, 0.1 mM EDTA, 5% glycerol (+2.5%), 200 ug/ml BSA, 50 ng/ul poly(dI-dC), 0.05% NP-40, 20 fmol DNA, 10 ug Mig1 in 20 ul …", "data": [{"sequence": "GAAGATGATGCGGCGGCAACTGGTTCTGGGCTGGGGAACACCCTATTCGACCGGTTGAATGAGTCACAATCGGCCGGCAGCCCTGCTGCAGGCACCGGCGCAAGTGGCTCCGGACCGAAGCCTCGCCAGCAGTTGATCAAGCGAACCAAGCCGAACAATCCTGGCGCGCCTGGAGGAGCGGGAGCGGGAGGAGCAGCAGGTGATGCATC (double strand) [crtS promoter boxes C-D 209 bp]", "values": [{"measurement": "binding", "value": "binds"}]}]}
